# Experimental data published in article PMC7876108, “Cryo-EM structures of engineered active bc1-cbb3 type CIII2CIV super-complexes and electronic communication between the complexes” (Nature Communications, 2021).
# T1: cytochrome c1, subunit of bc1-type CIII2 (Rhodobacter capsulatus, UniProt D5ANZ4 22-279)
# T1 construct: cytochrome c1 (petC), Rhodobacter capsulatus; Stood within the CIII2 complex (FeS protein, cyt b, cyt c1; a dimer) in the cross-linking and in the cryo-EM maps of native CIII2; also called cyt c1; PetC; source: native CIII2 particles in the bipartite SC + cy sample
# T1 sequence (looked up): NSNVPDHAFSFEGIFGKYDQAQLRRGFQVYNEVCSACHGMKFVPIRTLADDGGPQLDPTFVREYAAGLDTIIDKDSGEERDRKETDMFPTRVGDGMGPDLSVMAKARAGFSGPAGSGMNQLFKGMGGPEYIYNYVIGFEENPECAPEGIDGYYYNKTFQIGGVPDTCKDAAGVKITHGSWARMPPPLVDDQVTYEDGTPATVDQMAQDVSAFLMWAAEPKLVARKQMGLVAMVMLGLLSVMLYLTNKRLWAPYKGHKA
# T2: CcoP, subunit of cbb3-type CIV (Rhodobacter capsulatus, UniProt D5ARP7 1-297)
# T2 construct: CcoP subunit of the cbb3-type CIV, Rhodobacter capsulatus; Stood within purified CIV in the cross-linking
# T2 sequence (looked up): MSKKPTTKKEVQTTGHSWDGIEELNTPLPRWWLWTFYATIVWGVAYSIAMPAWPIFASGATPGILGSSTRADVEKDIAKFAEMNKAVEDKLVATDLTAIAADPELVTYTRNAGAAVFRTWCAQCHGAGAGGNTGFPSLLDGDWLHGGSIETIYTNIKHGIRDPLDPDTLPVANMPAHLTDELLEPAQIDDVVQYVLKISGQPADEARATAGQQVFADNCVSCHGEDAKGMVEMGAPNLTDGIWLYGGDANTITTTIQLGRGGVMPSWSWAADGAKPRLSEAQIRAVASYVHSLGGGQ
# T3: cytochrome cy, full length (membrane-anchored) (Rhodobacter capsulatus, UniProt Q05389 1-199)
# T3 construct: cytochrome cy (cycY), Rhodobacter capsulatus: 30-residue TMH, 69-residue linker, 100-residue cyt c domain; Only its TMH is resolved in map SC-2A; also called cyt cy; intact cyt cy; source: purified
# T3 sequence (looked up): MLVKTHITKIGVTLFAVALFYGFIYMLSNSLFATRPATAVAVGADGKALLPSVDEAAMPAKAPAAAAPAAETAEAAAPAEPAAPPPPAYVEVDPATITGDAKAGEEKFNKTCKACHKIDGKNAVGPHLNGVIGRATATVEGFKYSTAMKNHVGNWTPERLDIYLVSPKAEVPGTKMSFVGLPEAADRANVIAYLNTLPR
# B1: cytochrome b, subunit of CIII2 (natural protein, Rhodobacter capsulatus)
# chain: MSGIPHDHYEPKTGIEKWLHDRLPIVGLVYDTIMIPTPKNLNWWWIWGIVLAFTLVLQIVTGIVLAMHYTPHVDLAFASVEHIMRDVNGGWAMRYIHANGASLFFLAVYIHIFRGLYYGSYKAPREITWIVGMVIYLLMMGTAFMGYVLPWGQMSFWGATVITGLFGAIPGIGPSIQAWLLGGPAVDNATLNRFFSLHYLLPFVIAALVAIHIWAFHTTGNNNPTGVEVRRTSKADAEKDTLPFWPYFVIKDLFALALVLLGFFAVVAYMPNYLGHPDNYVQANPLSTPAHIVPEWYFLPFYAILRAFAADVWVVILVDGLTFGIVDAKFFGVIAMFGAIAVMALAPWLDTSKVRSGAYRPKFRMWFWFLVLDFVVLTWVGAMPTEYPYDWISLIASTYWFAYFLVILPLLGATEKPEPIPASIEEDFNSHYGNPAE
# notes: cytochrome b (petB), Rhodobacter capsulatus; also called cyt b; PetB
# What was measured:
# [1] = target: T1, cytochrome c1, subunit of bc1-type CIII2; experiment: cross-linking; XL-MS: 300 ug purified bc1-type CIII2 with 2-fold molar excess of cyt c2, 20 mM DMTMM, 1 h, room temperature, low salt (20 mM Na-phosphate pH 7.4, 1 mM NaCl, 0.01% DDM); settings: both partners purified
# [2] = target: T2, CcoP, subunit of cbb3-type CIV; experiment: cross-linking; XL-MS: 300 ug purified cbb3-type CIV with 2-fold molar excess of cyt c2, 20 mM DMTMM, 1 h, room temperature, low salt (20 mM Na-phosphate pH 7.4, 1 mM NaCl, 0.01% DDM); settings: both partners purified
# [3] = target: T1, cytochrome c1, subunit of bc1-type CIII2; experiment: cryo-EM structure; native CIII2 particles in the bipartite SC + cy samples; maps CIII2 (3.3 A), CIII2 c-c (3.8 A), b-c (4.2 A), b-b (3.5 A); settings: both partners purified
# [4] = target: B1; experiment: as above; settings: both partners purified
# [5] = target: T3, cytochrome cy, full length …; experiment: cross-linking; XL-MS: cyt cy with CIII2CIV, DMTMM; settings: both partners purified
# [6] = target: the molecule itself; experiment: cryo-EM structure; purified bipartite SC mixed with 5-fold molar excess of purified cyt cy; map SC-2A, 5.2 A; models fitted as rigid bodies
# [7] = target: B1; experiment: as above; settings: both partners purified
binder,measurement,setting,value
"cytochrome c2 (natural protein, Rhodobacter capsulatus, UniProt P00094 22-137, looked up, soluble cytochrome c2, Rhodobacter capsulatus; also called cyt c2; source: purified R. capsulatus cyt c2) GDAAKGEKEFNKCKTCHSIIAPDGTEIVKGAKTGPNLYGVVGRTAGTYPEFKYKDSIVALGASGFAWTEEDIATYVKDPGAFLKEKLDDKKAKTGMAFKLAKGGEDVAAYLASVVK",binding result,[1],binds
same,binding result,[2],binds
"Rieske FeS protein, subunit of CIII2 (natural protein, Rhodobacter capsulatus, Rieske FeS protein (petA), Rhodobacter capsulatus; TMH residues 11-49, external domain (ED) residues 50-191 in the model; also called PetA; FeS-ED (its external domain); source: R. capsulatus pYO76/YO12, subunit of the purified bipartite SC and of the native CIII2 particles in that sample) MSHAEDNAGTRRDFLYHATAATGVVVTGAAVWPLINQMNASADVKAMASIFVDVSAVEVGTQLTVKWRGKPVFIRRRDEKDIELARSVPLGALRDTSAENANKPGAEATDENRTLPAFDGTNTGEWLVMLGVCTHLGCVPMGDKSGDFGGWFCPCHGSHYDSAGRIRKGPAPRNLDIPVAAFVDETTIKLG",binding result,[3],binds
same,binding result,[4],binds
same,binding result,[5],binds
B1,binding result,[6],binds
"cyt c1-CcoP fusion subunit of the bipartite SC (His8) (other, Rhodobacter capsulatus, UniProt D5ANZ4 22-279, looked up, cytochrome c1 (petC), Rhodobacter capsulatus; stop codon eliminated, no linker to CcoP; CcoP subunit of the cbb3-type CIV, Rhodobacter capsulatus; start codon eliminated; About 65 kDa; Stood within the bipartite SC; also called petC::ccoP-His8; source: R. capsulatus pYO76/YO12, subunit of the purified bipartite SC; not shown: His8, C-terminal, kept) NSNVPDHAFSFEGIFGKYDQAQLRRGFQVYNEVCSACHGMKFVPIRTLADDGGPQLDPTFVREYAAGLDTIIDKDSGEERDRKETDMFPTRVGDGMGPDLSVMAKARAGFSGPAGSGMNQLFKGMGGPEYIYNYVIGFEENPECAPEGIDGYYYNKTFQIGGVPDTCKDAAGVKITHGSWARMPPPLVDDQVTYEDGTPATVDQMAQDVSAFLMWAAEPKLVARKQMGLVAMVMLGLLSVMLYLTNKRLWAPYKGHKASKKPTTKKEVQTTGHSWDGIEELNTPLPRWWLWTFYATIVWGVAYSIAMPAWPIFASGATPGILGSSTRADVEKDIAKFAEMNKAVEDKLVATDLTAIAADPELVTYTRNAGAAVFRTWCAQCHGAGAGGNTGFPSLLDGDWLHGGSIETIYTNIKHGIRDPLDPDTLPVANMPAHLTDELLEPAQIDDVVQYVLKISGQPADEARATAGQQVFADNCVSCHGEDAKGMVEMGAPNLTDGIWLYGGDANTITTTIQLGRGGVMPSWSWAADGAKPRLSEAQIRAVASYVHSLGGGQ",binding result,[5],binds
same,binding result,[7],binds
